According to US20240425589A1, “CYTOTOXICITY-INDUCING THERAPEUTIC AGENT FOR USE IN TREATMENT OF CANCER” (CHUGAI SEIYAKU KABUSHIKI KAISHA, priority 2021, published 2024):

Columns and labels:
[1] = system: NIH:OVCAR-3; assay: OVCAR3 xenograft in huNOG mice, combination with irinotecan hydrochloride; type: in vivo; settings: 60 days after transplantation; CS4135 0.1 mg/kg, irinotecan hydrochloride 25 mg/kg, iv days 39, 46
Description: In this test, NOG(huNOG) mice (described in the aforementioned Example 13) transplanted with ovarian cancer cell line NIH:OVCAR-3 (OVCAR3, ATCC) and human CD34-positive cells were used. The OVCAR3 cell line was transplanted subcutaneously to the right flank of the mice, and the mice were divided into groups 39 days after transplantation. Individuals whose tumor volume reached 160 to 263 mm^3 were divided into groups. Vehicle 1 and CS4135 were administered into the mouse tail vein 39 and 46 days after transplantation. PBS containing 0.05% Tween-20 was used as Vehicle 1. Vehicle 2 and irinotecan hydrochloride (Sawai Pharmaceutical Co., Ltd.) were administered into the mouse tail vein 39 and 46 days after transplantation. Physiological saline was used as Vehicle 2.
Tumor volume was measured 39, 42, 46, 49, 53, 57, and 60 days after transplantation, and the average tumor volume is indicated for each group. The tumor volume was calculated by the following equation: […]
Tumor Growth Inhibition (TGI) was calculated by the following equation: […]

[2] = target: T1, human CLDN6 VLP (Homo sapiens, UniProt P56747); assay: Biacore T200 SPR affinity to human CLDN6 VLP; type: binding; settings: human CLDN6, 25 degree C, pH 7.4
T1 sequence (P56747 1-220): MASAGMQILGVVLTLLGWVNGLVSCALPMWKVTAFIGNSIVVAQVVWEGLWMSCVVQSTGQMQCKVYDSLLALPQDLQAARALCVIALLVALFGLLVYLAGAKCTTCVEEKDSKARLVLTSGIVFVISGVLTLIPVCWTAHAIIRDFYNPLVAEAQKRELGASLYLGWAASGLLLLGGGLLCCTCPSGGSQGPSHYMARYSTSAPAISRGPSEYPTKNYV
Description: The binding affinity of the anti-CLDN6/Dual-Fab tri-specific antibody against human and cynomolgus (cyno) CLDN6 VLP (virus-like particle) at pH 7.4 was determined at 25 degree C. using Biacore T200 instrument (GE Healthcare). Anti-human CD81 (BD Pharmingen) antibody was immobilized onto all flow cells of a C1 sensor chip using amine coupling kit (GE Healthcare). Human and cyno CLDN6 VLP were captured onto the sensor surface by the anti-human CD81 antibody. Each VLP was 5-fold dilution by buffer (20 mM NaPhosphate, 150 mM NaCl, 0.1 mg/mL BSA, 0.005% NaN3, pH 7.4). Tested antibody was prepared in buffer (20 mM NaPhosphate, 150 mM NaCl, 0.1 mg/mL BSA, 0.005% NaN3, pH 7.4). Anti-CLDN6/Dual-Fab tri-specific antibody was injected at 50 and 200 nM, followed by dissociation. Sensor surface was regenerated each cycle with 0.1% SDS and 100 mM H3PO4. […] Binding affinities were determined by processing and fitting the data to 1:1 binding model using Biacore T200 Evaluation software, version 2.0 (GE Healthcare).

[3] = system: OV-90; assay: Mouse peritoneal dissemination model; type: in vivo, NOD/ShiJic-scid Jcl mice; settings: 5 mg/kg iv
Description: To evaluate the effect of anti-CLDN6/Dual-Fab tri-specific antibody CS4135 (the same antibody as PPU4135 described in Table 9 of Example 6 described above) against peritoneal metastasis of ovary cancer, the drug efficacy was evaluated using a mouse peritoneal dissemination model. Human ovarian cancer cell line OV-90 (ATCC) was used as target cells. OV-90 cells were transplanted intraperitoneally to NOD/ShiJic-scid Jcl mice at 5×10^6 cells/500 μL/animal. Three days after transplantation, human T cells separated from human PBMC and expansively cultured using Dynabeads Human T-Activator CD3/CD28 (Gibco) were administered intravenously at 3×10^7 cells/400 μL. Furthermore, the vehicle (PBS containing 0.05% Tween-20) or a CS4135 antibody solution at 5 mg/kg was administered intravenously.
After tumor transplantation, the mice were observed every 2 to 7 days, and the conditions of the mice were assessed according to the humane endpoint guideline.

[4] = target: recombinant cyno CD137 (Macaca fascicularis, UniProt A9YYE7); assay: Biacore 8K SPR affinity to cyno CD137; type: binding, cynomolgus; settings: cyno CD137, 37 degree C, pH 7.4
Sequence of recombinant cyno CD137 (A9YYE7 1-254): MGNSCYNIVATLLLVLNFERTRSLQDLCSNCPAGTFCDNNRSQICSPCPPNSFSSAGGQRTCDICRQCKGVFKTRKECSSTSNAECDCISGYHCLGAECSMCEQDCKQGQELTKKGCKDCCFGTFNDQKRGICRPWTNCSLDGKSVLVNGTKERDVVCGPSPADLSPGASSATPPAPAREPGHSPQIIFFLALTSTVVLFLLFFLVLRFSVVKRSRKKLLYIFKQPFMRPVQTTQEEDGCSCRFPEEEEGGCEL
Description: The binding affinity of the anti-CLDN6/Dual-Fab tri-specific antibody against recombinant human and cyno CD3eg (gamma and epsilon subunits of CD3) at pH 7.4 was determined at 25 degree C. using Biacore 8K instrument (GE Healthcare). The binding affinity of the anti-CLDN6/Dual-Fab tri-specific antibody against recombinant human and cyno CD137 at pH 7.4 was determined at 37 degree C. using Biacore 8K instrument (GE Healthcare). Anti-human Fc (GE Healthcare) antibody was immobilized onto all flow cells of a CM4 sensor chip using amine coupling kit (GE Healthcare). Tested antibody and analytes were prepared in ACES pH 7.4 containing 20 mM ACES, 150 mM NaCl, 0.05% Tween 20, 0.005% NaN3. Anti-CLDN6/Dual-Fab tri-specific antibody was captured onto the sensor surface by anti-human Fc. Antibody capture levels were aimed at 300 resonance unit (RU). Recombinant CD3eg and CD137 were injected at both 500 and 2000 nM, followed by dissociation. Sensor surface was regenerated each cycle with 3M MgCl2. […] Binding affinities were determined by processing and fitting the data to 1:1 binding model using Biacore Insight Evaluation software (GE Healthcare).

B1: PPU4135: anti-CLDN6/Dual-Fab tri-specific antibody, chains SEQ ID NOs 42, 51, 56, 69; CS4135 same antibody (protein)
chain 1: QVQLVESGGGVVQPGGSLRLSCAASGFTFSSYTMSWVRQAPGQGLEWMGTISSGGGRTYYPDSVKGRFTISRDNSKNTLYLQMNSLRDEDTAVYYCARGDYRYDGFAYWGEGTLVTVSSASTKGPSVFPLAPSSKSTSGGTAALGCLVEDYFPEPVTVSWNSGALTSGVHTFPAVLESSGLYSLSSVVTVPSSSLGTQTYICNVNHKPSNTKVDKRVEPKSCDKTHTCPPCPAPEAAGGPSVFLFPPKPKDTLMISRTPEVTCVVVDVSHEDPEVKFNWYVDGVEVHNAKTKPREEQYASTYRVVSVLTVLHQDWLNGKEYKCKVSNKALPAPIEKTISKAKGQPREPQVYTLPPSREEMTKNQVSLTCLVKGFYPSDIAVEWESNGQPENNYKTTPPVLDSDGSFFLYSKLTVDKSRWQQGNVFSCSVMHEALHNHYTQESLSLSP
chain 2: DIQMTQSPSSLSASVGDRVTITCRASYNIDSYLAWYQQKPGKAPELLIYYSTLLVDGVPDRFSGSRSGTDFTLTISSLQPEDFATYYCQHYYSIPYTFGQGTKVEIERTVAAPSVFIFPPSDEQLKSGTAKVVCLLNNFYPREAKVQWKVDNALQSGNSKESVTEQDSKDSTYSLSSTLTLSKADYEKHKVYACEVTHQGLSSPVTKSFNRGEC
chain 3: QVQLVESGGGLVQPGRSLRLSCAASGFKFSNVWFHWVRQAPGKGLEWVAQIKDYYNAYAAYYAPSVKGRFTISRDDSKNSIYLQMNSLKTEDTAVYYCHYVHYASASTLLPAEGVDAWGQGTTVTVSSASTKGPSVFPLAPSSKSTSGGTAALGCLVKDYFPEPVTVSWNSGALTSGVHTFPAVLKSSGLYSLSSVVTVPSSSLGTQTYICNVNHKPSNTKVDKRVEPKSCDKTHTCPPCPAPEAAGGPSVFLFPPKPKDTLMISRTPEVTCVVVDVSHEDPEVKFNWYVDGVEVHNAKTKPREEQYASTYRVVSVLTVLHQDWLNGKEYKCKVSNKALPAPIEKTISKAKGQPREPQVYTLPPSRKEMTKNQVSLTCLVKGFYPSDIAVEWESNGQPENNYKTTPPVLDSDGSFFLYSKLTVDKSRWQQGNVFSCSVMHEALHNHYTQKSLSLSP
chain 4: DIVMTQSPLSLPVTPGEPASISCQPSQEVVHMNRNTYLHWYQQKPGQAPRLLIYKVSNRFPGVPDRFSGSGSGTDFTLKISRVEAEDVGVYYCAQGTSHPFTFGQGTKLEIKRTVAAPSVFIFPPSDEQLKSGTAEVVCLLNNFYPREAKVQWKVDNALQSGNSEESVTEQDSKDSTYSLSSTLTLSKADYEKHKVYACEVTHQGLSSPVTKSFNRGEC
[1]
  Tumor growth inhibition: TGI: −2%
[2]
  ka: 217000 M⁻¹ s⁻¹
  kd: 0.000794 s⁻¹
[3]
  50% survival rate found: 71 days after transplantation
[3]; vehicle from 48 days
  mice showing aggravated conditions observed from: 57 days after transplantation
[3]; 66 days after transplantation
  survival rate: 78%
[3]; 80 days after transplantation
  survival rate: 22%
[4]
  ka: 8350 M⁻¹ s⁻¹
  kd: 0.00146 s⁻¹
